Where a chain is given by its changes, count along the chain named.
What was measured:
[1] = target: T1, CjFurΔS2 H43A;H102A (Campylobacter jejuni NCTC11168?) (UniProt P0C631); experiment: EMSA; details: 20 mM Bis-Tris borate pH 7.4, 50 mM KCl, 3 mM MgCl2, 5% glycerol, 0.1% Triton X-100, 0.1 ug poly dI-dC, 2 nM DNA, 45 min on ice; holo: +50 uM MnCl2 (100 uM in …)
T1 sequence: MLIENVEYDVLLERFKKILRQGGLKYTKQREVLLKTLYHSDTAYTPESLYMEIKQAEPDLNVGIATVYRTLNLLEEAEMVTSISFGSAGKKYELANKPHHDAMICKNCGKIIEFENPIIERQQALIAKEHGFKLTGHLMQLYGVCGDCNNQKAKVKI

[2] = target: T2, CjFur K17E K17E (Campylobacter jejuni NCTC11168?) (UniProt P0C631); experiment: EMSA; details: 20 mM Bis-Tris borate pH 7.4, 50 mM KCl, 3 mM MgCl2, 5% glycerol, 0.1% Triton X-100, 0.1 ug poly dI-dC, 2 nM DNA, 45 min on ice; holo: +50 uM MnCl2 (100 uM in …)
T2 sequence: T1 sequence with K17E, A43H, A102H

[3] = target: T3, CjFur R69E R69E (Campylobacter jejuni NCTC11168?) (UniProt P0C631); experiment: EMSA; details: 20 mM Bis-Tris borate pH 7.4, 50 mM KCl, 3 mM MgCl2, 5% glycerol, 0.1% Triton X-100, 0.1 ug poly dI-dC, 2 nM DNA, 45 min on ice; holo: +50 uM MnCl2 (100 uM in …)
T3 sequence: T1 sequence with A43H, R69E, A102H

[4] = target: T4, CjFur WT (Campylobacter jejuni NCTC11168?) (UniProt P0C631); experiment: EMSA; details: 20 mM Bis-Tris borate pH 7.4, 50 mM KCl, 3 mM MgCl2, 5% glycerol, 0.1% Triton X-100, 0.1 ug poly dI-dC, 2 nM DNA, 45 min on ice; holo: +50 uM MnCl2 (100 uM in …)
T4 sequence: T1 sequence with A43H, A102H

[5] = target: T5, CjFurΔS3 H99A;H137A (Campylobacter jejuni NCTC11168?) (UniProt P0C631); experiment: EMSA; details: 20 mM Bis-Tris borate pH 7.4, 50 mM KCl, 3 mM MgCl2, 5% glycerol, 0.1% Triton X-100, 0.1 ug poly dI-dC, 2 nM DNA, 45 min on ice; holo: +50 uM MnCl2 (100 uM in …)
T5 sequence: T1 sequence with A43H, H99A, A102H, H137A

[6] = target: T6, CjFur K28E K28E (Campylobacter jejuni NCTC11168?) (UniProt P0C631); experiment: EMSA; details: 20 mM Bis-Tris borate pH 7.4, 50 mM KCl, 3 mM MgCl2, 5% glycerol, 0.1% Triton X-100, 0.1 ug poly dI-dC, 2 nM DNA, 45 min on ice; holo: +50 uM MnCl2 (100 uM in …)
T6 sequence: T1 sequence with K28E, A43H, A102H

[7] = target: T7, CjFur R30E R30E (Campylobacter jejuni NCTC11168?) (UniProt P0C631); experiment: EMSA; details: 20 mM Bis-Tris borate pH 7.4, 50 mM KCl, 3 mM MgCl2, 5% glycerol, 0.1% Triton X-100, 0.1 ug poly dI-dC, 2 nM DNA, 45 min on ice; holo: +50 uM MnCl2 (100 uM in …)
T7 sequence: T1 sequence with R30E, A43H, A102H

[8] = target: T8, CjFur K25E K25E (Campylobacter jejuni NCTC11168?) (UniProt P0C631); experiment: EMSA; details: 20 mM Bis-Tris borate pH 7.4, 50 mM KCl, 3 mM MgCl2, 5% glycerol, 0.1% Triton X-100, 0.1 ug poly dI-dC, 2 nM DNA, 45 min on ice; holo: +50 uM MnCl2 (100 uM in …)
T8 sequence: T1 sequence with K25E, A43H, A102H

[9] = target: T9, CjFur R20E R20E (Campylobacter jejuni NCTC11168?) (UniProt P0C631); experiment: EMSA; details: 20 mM Bis-Tris borate pH 7.4, 50 mM KCl, 3 mM MgCl2, 5% glycerol, 0.1% Triton X-100, 0.1 ug poly dI-dC, 2 nM DNA, 45 min on ice; holo: +50 uM MnCl2 (100 uM in …)
T9 sequence: T1 sequence with R20E, A43H, A102H

[10] = target: T10, CjFur Y68A Y68A (Campylobacter jejuni NCTC11168?) (UniProt P0C631); experiment: EMSA; details: 20 mM Bis-Tris borate pH 7.4, 50 mM KCl, 3 mM MgCl2, 5% glycerol, 0.1% Triton X-100, 0.1 ug poly dI-dC, 2 nM DNA, 45 min on ice; holo: +50 uM MnCl2 (100 uM in …)
T10 sequence: T1 sequence with A43H, Y68A, A102H

CjFur WT = target: T11, CjFur WT (UniProt P0C631 1-157); experiment: EMSA; holo, 50 uM MnCl2; 0-100 nM protein; two bound species; 20 mM Bis-Tris borate pH 7.4, 50 mM KCl, 3 mM MgCl2, 5% glycerol, 0.1% Triton X-100, 0.1 ug poly dI-dC, 2 nM DNA, 45 min on ice; holo: +50 uM MnCl2 (100 uM in gel); gel at 4 C; details: protein: recombinant; tags: N-terminal Strep tag, TEV-cleaved; chain copies: 2; label: 5' Cy5 on both strands; blunt
T11 sequence: T1 sequence with A43H, A102H

CjFur R69E = CjFur R69E (UniProt P0C631 1-157, R69E); experiment: EMSA; holo, 50 uM MnCl2; 0-100 nM protein; 20 mM Bis-Tris borate pH 7.4, 50 mM KCl, 3 mM MgCl2, 5% glycerol, 0.1% Triton X-100, 0.1 ug poly dI-dC, 2 nM DNA, 45 min on ice; holo: +50 uM MnCl2 (100 uM in gel); gel at 4 C; details: protein: recombinant; tags: N-terminal Strep tag, TEV-cleaved; chain copies: 2; label: 5' Cy5 on both strands; blunt
CjFur R30E = CjFur R30E (UniProt P0C631 1-157, R30E); experiment: as above; details: protein: recombinant; tags: N-terminal Strep tag, TEV-cleaved; chain copies: 2; label: 5' Cy5 on both strands; blunt
CjFur Y68A = CjFur Y68A (UniProt P0C631 1-157, Y68A); experiment: as above; details: protein: recombinant; tags: N-terminal Strep tag, TEV-cleaved; chain copies: 2; label: 5' Cy5 on both strands; blunt
CjFur K25E = CjFur K25E (UniProt P0C631 1-157, K25E); experiment: as above; details: protein: recombinant; tags: N-terminal Strep tag, TEV-cleaved; chain copies: 2; label: 5' Cy5 on both strands; blunt
[11] = target: the molecule itself; experiment: crystal structure; CjFur (7.5 ug/uL) crystallised in 0.1 M Bis-Tris pH 5.5, 0.25 M MgFormate, 25% PEG3350; molecular replacement; 1.8 A; form with zinc in S1 only (CjFurZn)

GGGAAAAGAGCCAAATTTAGGTGTTATCATCAATGCTGCTAATGAAGTTGGTGTTTATAATTTTTTAGAAAATAAAAGTGGATTTTTAGACATTGCTAAATGCATTTTTAAAGCCCTTGATCATTTTGGAGTACCTAAAATTTCAAGCATAGAAGAAGTTTTTGAGTATGATTTTAAAACAAGAGAGTATTTAAGGAGTTAAA (double strand) [cj1345c promoter region]
binding [1]: binds more weakly | binding [2]: binds more weakly | binding [3]: no binding | binding [4]: binds | binding [5]: binds more weakly | binding [6]: no binding | binding [7]: binds more weakly | binding [8]: no binding | binding [9]: no binding | binding [10]: binds more weakly

B1: katA promoter 60 bp (dsDNA)
DNA 1: ACTGAATAATTGCATTTTATTGATAATAAATTTCAAAATAAATTTAGTTTTTTTATATTA
DNA 2: TAATATAAAAAAACTAAATTTATTTTGAAATTTATTATCAATAAAATGCAATTATTCAGT
binding result (CjFur WT): binds | binding result (CjFur R69E): no binding | binding result (CjFur R30E): no binding | binding result (CjFur Y68A): no binding | binding result (CjFur K25E): no binding

B2: Campylobacter jejuni Fur (ferric uptake regulator), wild type (natural protein)
chain: T1 sequence with A43H, A102H
notes: Ferric uptake regulator Fur of Campylobacter jejuni; wild type; in the crystal one zinc per protomer in the S1 site (C105, C108, C145, C148), S2 and S3 sites empty; Crystallised form is called CjFurZn (zinc only in S1); the earlier structure 4ETS of the same protein is called CjFurZn2 (zinc in S1 and S3); also called CjFur; CjFurZn; source: E. coli Rosetta, purified (Strep-TACTIN beads, TEV …)
stoichiometry N [11]: 2

Source: PMC5940780, “Functional insights into the interplay between DNA interaction and metal coordination in ferric uptake regulators” (Scientific Reports, 2018)
